In the assay the target is HIV-1 JRFL Env (full length), on infected primary CD4+ T cells and on virions (HIV-1 JRFL, UniProt P20871 32-503; P20871 504-848). Nature of the assay: cell-based or functional assay.

B1: N5-i5 antibody (antibody, V domains shown)
VH: EVQLVESGGGLVQPGGSLRLSCAASGFTFSTYAMSWVRQAPGKGLEWVSSINNSGRNTFSADSVKGRFTISRDNSKNTLFLVMNSLRAEDTAVYYCAKDLRLGGGSDYWGQGTLVTVSS
VL: QSALTQPASVSGSPGQSITISCTGTSSDVGSYNFVSWYQQHPGKAPKLMIYEVSERPSGISNRFSGSKSGNTASLTISGLQAEDEADYYCSSYAGSTTFRVFGGGTKLTVRG
On to B1, for which the “Neutralization IC50 against JRFL (N5-i5 + sCD4 mix)” value is more than 10 µg/mL and the “Neutralization IC50 against JRFL (N5-i5 antibody alone)” value was more than 10 µg/mL.

B2: X5 antibody (antibody, V domains shown)
VH: VQLLEQSGAEVKKPGSSVQVSCKASGGTFSMYGFNWVRQAPGHGLEWMGGIIPIFGTSNYAQKFRGRVTFTADQATSTAYMELTNLRSDDTAVYYCARDFGPDWEDGDSYDGSGRGFFDFWGQGTLVTVSS
VL: ELVLTQSPGTLSLSAGERATLSCRASQSVSSGSLAWYQQKPGQAPRLLIYGASTRATGIPDRFSGSGSGTDFTLTIGRLEPEDLAVYYCQQYGTSPYTFGQGTKLEIKR
B2: the “Neutralization IC50 against JRFL (X5 + sCD4 mix)” value is 3.23 µg/mL and the “Neutralization IC50 against JRFL (X5 antibody alone)” value is more than 10 µg/mL.

B3: A32 antibody (antibody, V domains shown)
VH: QVQLQESGPGLVKPSQTLSLSCTVSGGSSSSGAHYWSWIRQYPGKGLEWIGYIHYSGNTYYNPSLKSRITISQHTSENQFSLKLNSVTVADTAVYYCARGTRLRTLRNAFDIWGQGTMVTVSS
VL: VLTQPPSASGSPGQSVTISCTGTSSDVGGYNYVSWYQHHPGKAPKLIISEVNNRPSGVPDRFSGSKSGNTASLTVSGLQAEDEAEYYCSSYTDIHNFVFGGGTKLTVLG
Take B3: the “Neutralization IC50 against JRFL (A32 + sCD4 mix)” value was more than 10 µg/mL and the “Neutralization IC50 against JRFL (A32 antibody alone)” value was more than 10 µg/mL.

These data come from patent US20240285790A1 (HENRY M JACKSON FOUNDATION FOR THE ADVANCEMENT OF MILITARY …, published 2024).
